Laboratory results published in the supplement of paper PMC7877785.
± gives the uncertainty stated by the source.

Experiment: self-splicing fitness, log relative to wild type (ln ratio); higher = more splicing; Tetrahymena group I intron in knt gene, E. coli kanamycin selection, DiMSum; sequences stand for … in CUCUCU…GGAGGGAAAAGUUAUCAGGCAUGCACCUGGUAGCUAGUCUUUAAACCAAUAGAUUGCAUCGGUUUAAAAGGCAAGACCGUCAAAUUGCGGGAAAGGGGUCAACAGCCGUUCAGUACCAAGUCUCAGGGGAAACUUUGAGAUGGCCUUGCAAAGGGUAUGGUAAUAAGCUGACGGACAUGGUCCUAACCACGCAGCCAAGUCCUAAGUCAACAGAUCUUCUGUUGAUAUGGAUGCAGUUCACAGACUAAAUGUCGGUCGGGGAAGAUGUAUUCUUCUCAUAAGAUAUAGUCGGACCUCUCCUUAAUGGGAGCUAGCGGAUGAAGUGAUGCAACACUGGAGCCGCUGGGAACUAAUUUGUAUGCGAAAGUAUAUUGAUUAGUUUUGGAGUACUCGUGGUCG
Outline: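 The eight P1ex-region nucleotides of an intron in the knt kanamycin-resistance gene on pET-22b(+) were all randomised and the library put into E. coli BL21(DE3). Six replicate transformations were grown overnight at 37°C or 30°C on LB agar with or without 25 μg/mL kanamycin, together with 100 μg/mL carbenicillin, 50 μM IPTG and 0.2% rhamnose. Colonies were pooled and amplicon-sequenced on an Illumina HiSeq 2500. Fitness from DiMSum is the error-weighted combination of wild-type-normalised replicate fold changes, kanamycin over none.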

Row | Sequence | self-splicing fitness (ln) (30 °C) | self-splicing fitness (ln) (37 °C)
1 | CGUCAGCAAUAUUACGUGUC | -3.72 ± 0.17 | -2.96 ± 0.19
2 | CGUGAGCAAUAUUACGAACA | -0.649 ± 0.15 | -0.766 ± 0.17
3 | CGUGAGCAAUAUUACGACCA |  | -0.768 ± 0.24
4 | CGUGAGCAAUAUUACGACCG | -3.79 ± 0.33 | -1.39 ± 0.27
5 | CGUGAGCAAUAUUACGACGA | -1.92 ± 0.12 | -0.885 ± 0.12
6 | CGUGAGCAAUAUUACGACGG | -0.058 ± 0.098 | 0.525 ± 0.11
7 | CGUGAGCAAUAUUACGAGAA | -3.1 ± 0.34 | -2.08 ± 0.24
8 | CGUGAGCAAUAUUACGAUAG | -1.13 ± 0.1 | -0.217 ± 0.15
9 | CGUGAGCAAUAUUACGAUCC | -2.65 ± 0.25 | -0.358 ± 0.25
10 | CGUGAGCAAUAUUACGAUCU | -0.613 ± 0.088 | -0.995 ± 0.14
11 | CGUGAGCAAUAUUACGAUGU | -1.56 ± 0.16 | -2.29 ± 0.25
12 | CGUGAGCAAUAUUACGCAAG | -2.85 ± 0.15 | -0.853 ± 0.13
13 | CGUGAGCAAUAUUACGCACA | -1.32 ± 0.16 | -0.702 ± 0.18
14 | CGUGAGCAAUAUUACGCCAC | -1.74 ± 0.35 | 
15 | CGUGAGCAAUAUUACGCCCA |  | -2.03 ± 0.46
16 | CGUGAGCAAUAUUACGCGAA | -2.35 ± 0.14 | -3.33 ± 0.29
17 | CGUGAGCAAUAUUACGCGAU | -2.75 ± 0.23 | -1.35 ± 0.24
18 | CGUGAGCAAUAUUACGCUCG | -2.69 ± 0.26 | -2.64 ± 0.24
19 | CGUGAGCAAUAUUACGCUGG | -1.7 ± 0.15 | -1.47 ± 0.18
20 | CGUGAGCAAUAUUACGGAUU | -4.38 ± 0.36 | -3.78 ± 0.46
21 | CGUGAGCAAUAUUACGGCGG | 0.333 ± 0.089 | 0.466 ± 0.11
22 | CGUGAGCAAUAUUACGGGGG | -2.65 ± 0.29 | -3.28 ± 0.37
23 | CGUGAGCAAUAUUACGGGUA |  | -2.39 ± 0.38
24 | CGUGAGCAAUAUUACGUAAG | -0.896 ± 0.1 | -1.14 ± 0.15
25 | CGUGAGCAAUAUUACGUCGA | -1.75 ± 0.29 | -3.3 ± 0.3
26 | CGUUAGCAAUAUUACGAAAG | -1.11 ± 0.13 | -0.689 ± 0.18

Row | Sequence | self-splicing fitness (ln) (30 °C) | self-splicing fitness (ln) (37 °C)
27 | CGUUAGCAAUAUUACGAAGC | -2.28 ± 0.43 | 
28 | CGUUAGCAAUAUUACGAAGG | -1.69 ± 0.1 | -0.895 ± 0.11
29 | CGUUAGCAAUAUUACGACGU | -2.74 ± 0.14 | -2.05 ± 0.16
30 | CGUUAGCAAUAUUACGAGAG | -2.83 ± 0.25 | 0.0196 ± 0.17
31 | CGUUAGCAAUAUUACGAGAU | -2.01 ± 0.23 | -2.33 ± 0.35
32 | CGUUAGCAAUAUUACGAGUA | -3.68 ± 0.37 | -2.67 ± 0.36
33 | CGUUAGCAAUAUUACGAUAU | -3.41 ± 0.14 | -2.22 ± 0.14
34 | CGUUAGCAAUAUUACGAUGU | -2.6 ± 0.26 | -1.78 ± 0.36
35 | CGUUAGCAAUAUUACGCAAA | -2.53 ± 0.36 | -2.67 ± 0.48
36 | CGUUAGCAAUAUUACGCAAU |  | -1.02 ± 0.23
37 | CGUUAGCAAUAUUACGCAUG | -1.13 ± 0.12 | -0.626 ± 0.17
38 | CGUUAGCAAUAUUACGCUCA | -0.383 ± 0.14 | -0.384 ± 0.15
39 | CGUUAGCAAUAUUACGCUGU | -2.88 ± 0.22 | -2.71 ± 0.33
40 | CGUUAGCAAUAUUACGCUUG | -1.71 ± 0.12 | -1.26 ± 0.15
41 | CGUUAGCAAUAUUACGGAAC | -3.05 ± 0.48 | -2.4 ± 0.41
42 | CGUUAGCAAUAUUACGGAUA | -1.83 ± 0.37 | -2.08 ± 0.31
43 | CGUUAGCAAUAUUACGGAUU | -2.33 ± 0.23 | -2.21 ± 0.24
44 | CGUUAGCAAUAUUACGGCGC |  | -2.24 ± 0.32
45 | CGUUAGCAAUAUUACGGGCU | -1.6 ± 0.099 | -1.46 ± 0.16
46 | CGUUAGCAAUAUUACGGGGG | -4.81 ± 0.45 | -3.46 ± 0.29
47 | CGUUAGCAAUAUUACGGGUA | -3.15 ± 0.37 | -2.08 ± 0.2
48 | CGUUAGCAAUAUUACGUAAU | -2.88 ± 0.24 | -1.63 ± 0.25
49 | CGUUAGCAAUAUUACGUAUC |  | -2.15 ± 0.28
50 | CGUUAGCAAUAUUACGUCUC |  | -1.86 ± 0.35
51 | CGUUAGCAAUAUUACGUGCC | -2.8 ± 0.31 | -1.59 ± 0.29
